What was measured:
[1] = target: SBP-tagged HER3-ECD (human); test: ELISA-type assay, 10 nM Eu-labelled Heregulin-beta on plate-bound SBP-tagged HER3-ECD, M-05-74 titrated
HER4 ECD-HRG complex = target: T1, HER4 ECD-HRG complex (human, UniProt Q15303 26-651); test: SPR Biacore T100, antibody captured
T1 construct: Her-4 ECD pre-incubated with a 5-fold molar excess of Heregulin; also called Her-4 ECD/Heregulin complex
T1 sequence 1: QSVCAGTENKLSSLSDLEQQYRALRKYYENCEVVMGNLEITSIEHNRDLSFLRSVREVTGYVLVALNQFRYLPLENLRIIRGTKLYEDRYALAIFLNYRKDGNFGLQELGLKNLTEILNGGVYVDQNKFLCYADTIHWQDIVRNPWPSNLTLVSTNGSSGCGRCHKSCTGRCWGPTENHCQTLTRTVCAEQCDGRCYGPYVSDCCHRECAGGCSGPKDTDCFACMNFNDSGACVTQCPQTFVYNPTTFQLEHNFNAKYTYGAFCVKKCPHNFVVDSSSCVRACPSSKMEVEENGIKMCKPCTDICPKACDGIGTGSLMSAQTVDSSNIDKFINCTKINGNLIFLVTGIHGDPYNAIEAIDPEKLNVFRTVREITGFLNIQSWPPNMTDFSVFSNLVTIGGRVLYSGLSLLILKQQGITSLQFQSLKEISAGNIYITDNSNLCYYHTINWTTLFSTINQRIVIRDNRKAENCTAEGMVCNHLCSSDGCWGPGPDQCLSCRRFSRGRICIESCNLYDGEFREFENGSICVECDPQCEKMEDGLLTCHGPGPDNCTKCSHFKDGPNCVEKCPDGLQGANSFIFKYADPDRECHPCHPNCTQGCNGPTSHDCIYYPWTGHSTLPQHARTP
T1 sequence 2: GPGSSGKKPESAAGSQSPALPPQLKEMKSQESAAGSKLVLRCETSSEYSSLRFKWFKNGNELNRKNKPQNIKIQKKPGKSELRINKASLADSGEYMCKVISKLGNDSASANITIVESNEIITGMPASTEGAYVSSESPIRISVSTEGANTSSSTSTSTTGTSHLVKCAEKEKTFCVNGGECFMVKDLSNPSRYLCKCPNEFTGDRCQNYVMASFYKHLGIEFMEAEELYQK

HER3 ECD-HRG complex [2] = target: T2, HER3 ECD-HRG complex (human, UniProt P21860 20-643); test: SPR Biacore T100, antibody captured
T2 construct: Her-3 ECD pre-incubated with a 5-fold molar excess of Heregulin; also called Heregulin/Her-3 ECD

[3] = target: T3, human recombinant HER3 ECD (human, UniProt P21860 20-643); test: binding affinity; method not restated (evaluated 'as described above'); HER3-ECD without HRG
T3 construct: 68 kDa recombinant protein; also called human-Her3-ECD; full length Her3 ECD

HER3 ECD-HRG complex [4] = target: T2, HER3 ECD-HRG complex; test: binding affinity; method not restated (evaluated 'as described above')
[5] = target: T3, human recombinant HER3 ECD; test: as above

T2 sequence (P21860 20-643 limits assumed, one chain of several): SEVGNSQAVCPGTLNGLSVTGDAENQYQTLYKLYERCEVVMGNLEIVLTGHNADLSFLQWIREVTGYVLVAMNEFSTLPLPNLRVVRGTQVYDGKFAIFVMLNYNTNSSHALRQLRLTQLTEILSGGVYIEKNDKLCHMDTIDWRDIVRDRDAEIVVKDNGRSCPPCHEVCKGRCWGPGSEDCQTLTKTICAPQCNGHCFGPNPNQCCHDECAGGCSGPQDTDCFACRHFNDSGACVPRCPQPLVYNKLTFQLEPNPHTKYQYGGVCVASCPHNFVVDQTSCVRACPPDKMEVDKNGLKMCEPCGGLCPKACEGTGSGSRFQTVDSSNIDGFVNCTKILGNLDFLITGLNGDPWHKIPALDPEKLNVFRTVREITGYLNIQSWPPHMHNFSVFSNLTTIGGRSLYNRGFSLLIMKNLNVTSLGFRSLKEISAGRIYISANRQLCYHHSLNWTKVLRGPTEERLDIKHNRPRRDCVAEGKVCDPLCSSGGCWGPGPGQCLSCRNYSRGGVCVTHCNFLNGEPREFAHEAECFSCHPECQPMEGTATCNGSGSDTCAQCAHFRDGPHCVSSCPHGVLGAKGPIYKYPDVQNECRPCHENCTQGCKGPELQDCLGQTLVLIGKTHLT
T3 sequence (P21860 20-643): as the sequence (P21860 20-643 limits assumed, one chain of several) above
Chain of SBP-tagged HER3-ECD (human) (chain, as listed by the source limits assumed, form in doubt): as the sequence (P21860 20-643 limits assumed, one chain of several) above

Europium-labeled Heregulin-beta (PeproTech, Cat. #100-03) (from UniProt Q02297-11 122-186) (ligand)
time-resolved fluorescence signal at the plateau, in the presence of M-05-74 [1]: 650

B1: anti-HER3/HER4 antibody M-05-74 (antibody, V domains shown)
VH: QVQLQQSGAELAKPGASVKMSCKTSGYTLTDYWIHWVKQRPGQGLEWIGYINPYTGYTESNQKFKDKATLTADKSSNTAYIQLSSLTSEDSAVYYCARPYYYGDYWGQGTTLTVSS
VL: QIVLTQSPAIMSASPGERVTITCSASSSVSYMHWFQQKPGTSPKLLIYSTSNLASGVPARFSGSGSGTSYSLTISRMEAEDAATYYCQQRSSYPFTFGSGTKLEIK
notes: Murine monoclonal antibody from hybridoma (culture supernatant or purified full length); also called M-074; M-5-74
ratio MR (+Heregulin)/MR (-Heregulin), against HER4-ECD alone (HER4 ECD-HRG complex): 6 fold
ratio ka (+Heregulin)/ka (-Heregulin), against HER4-ECD alone (HER4 ECD-HRG complex): 23.9 fold
ratio MR (+Heregulin)/MR (-Heregulin), against HER3-ECD alone (HER3 ECD-HRG complex [2]): 3 fold
ratio ka (+Heregulin)/ka (-Heregulin), against HER3-ECD alone (HER3 ECD-HRG complex [2]): 4.85 fold

B2: huMab M-05-74_5 (antibody, V domains shown)
VH: QVQLVQSGAELKKPGASVKVSCKASGYTLTDYWIHWVRQAPGQGLEWMGYINPYTGYTESNQKFQGRVTMTADTSTSTAYMELSSLRSEDTAVYYCARPYYYGDYWGQGTTVTVSS
VL: EIVLTQSPATLSLSPGERATLSCRASSSVSYMHWYQQKPGQAPRLLIYSTSNLATGIPARFSGSGSGTDFTLTISSLEPEDFAVYYCQQRSSYPFTFGQGTKLEIK
notes: Humanized variant of M-05-74
Kd [3]: 3.2 nM
Kd (HER3 ECD-HRG complex [4]): 4.1 nM

B3: huMab M-05-74_6 (antibody, V domains shown)
VH: QVQLVQSGAELKKPGASVKVSCKASGYTLTDYWIHWVRQAPGQGLEWMGYINPYTGYTESNQKFQGRVTMTADTSTSTAYMELSSLRSEDTAVYYCARPYYYGDYWGQGTTVTVSS
VL: DIQMTQSPSSLSASVGDRVTITCRASSSVSYMHWFQQKPGKAPKLLIYSTSNLQSGVPSRFSGSGSGTDFTLTISSLQPEDFATYYCQQRSSYPFTFGQGTKLEIK
notes: Humanized variant of M-05-74
Kd (HER3 ECD-HRG complex [4]): 8.6 nM
Kd [5]: 8.3 nM
